Assay [1] deals with T1, ARMS ankyrin repeats 1–11 (R1-11, residues 1–365) (rat, UniProt Q9EQG6 1-365).
T1 construct: ARMS (Kidins220), rat, UniProt Q9EQG6, residues 1-365: ankyrin repeats 1-11; also called ARMS R1-11; ARMS R1-11 WT; source: E. coli BL21 (DE3), purified (Ni-NTA, size-exclusion chromatography)
T1 sequence (looked up): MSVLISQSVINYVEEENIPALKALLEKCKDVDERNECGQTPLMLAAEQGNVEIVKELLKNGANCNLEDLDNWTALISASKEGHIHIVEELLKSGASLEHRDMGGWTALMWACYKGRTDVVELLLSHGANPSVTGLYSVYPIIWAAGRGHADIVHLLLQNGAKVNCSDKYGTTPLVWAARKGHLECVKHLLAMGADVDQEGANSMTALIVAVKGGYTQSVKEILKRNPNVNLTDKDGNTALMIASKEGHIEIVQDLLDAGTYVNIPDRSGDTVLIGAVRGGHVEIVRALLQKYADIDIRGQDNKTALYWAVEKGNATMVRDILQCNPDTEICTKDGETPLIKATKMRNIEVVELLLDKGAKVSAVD
Description: ITC; ARMS proteins (200 μM) in the syringe, Syt4 proteins (20 μM) in the cell; 25 °C; 50 mM Tris, 100 mM NaCl, 1 mM EDTA, 1 mM DTT, pH 7.8; one-site binding model. The settings on record: both partners purified. For orientation: In ITC the heat of successive injections is recorded.

The target in assay [2] is T2, ARMS R1-11 K180A (rat, UniProt Q9EQG6 1-365, K180A).
T2 construct: ARMS (Kidins220), rat, UniProt Q9EQG6, residues 1-365 (R1-11) with K180A; also called ARMS K180A; source: E. coli BL21 (DE3), purified (Ni-NTA, size-exclusion chromatography)
T2 sequence (looked up): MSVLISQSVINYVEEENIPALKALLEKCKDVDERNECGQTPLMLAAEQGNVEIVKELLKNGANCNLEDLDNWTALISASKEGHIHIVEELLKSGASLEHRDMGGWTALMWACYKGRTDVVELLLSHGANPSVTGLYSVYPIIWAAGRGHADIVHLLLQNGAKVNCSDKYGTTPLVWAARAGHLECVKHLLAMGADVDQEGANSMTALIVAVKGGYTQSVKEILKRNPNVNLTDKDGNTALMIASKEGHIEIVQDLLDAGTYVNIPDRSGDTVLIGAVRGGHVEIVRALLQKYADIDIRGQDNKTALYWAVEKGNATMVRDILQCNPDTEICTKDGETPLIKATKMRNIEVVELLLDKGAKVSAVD
The description is as above. As to conditions: both partners purified.

Assay [3] addresses T3, ARMS R1-11 K180A (rat, UniProt Q9EQG6 1-365, K180A).
T3 sequence: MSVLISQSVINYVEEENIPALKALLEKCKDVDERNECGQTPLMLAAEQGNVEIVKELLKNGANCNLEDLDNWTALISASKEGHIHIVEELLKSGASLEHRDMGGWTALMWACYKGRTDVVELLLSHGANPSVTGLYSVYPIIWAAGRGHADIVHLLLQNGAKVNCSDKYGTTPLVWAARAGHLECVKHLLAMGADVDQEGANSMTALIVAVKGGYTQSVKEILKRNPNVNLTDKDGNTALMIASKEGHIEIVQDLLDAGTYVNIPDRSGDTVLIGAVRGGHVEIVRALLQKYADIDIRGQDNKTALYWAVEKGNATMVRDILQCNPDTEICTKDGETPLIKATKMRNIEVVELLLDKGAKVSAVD
Nature of the assay: ITC.

Assay [4] concerns the target T4, ARMS protein N-terminal region (NT, residues 1–455) (rat, UniProt Q9EQG6 1-455).
T4 construct: ARMS (Kidins220), rat, UniProt Q9EQG6, residues 1-455: N-terminal region with the entire ankyrin repeat domain; also called ARMS NT; Kidins220 NT; source: E. coli BL21 (DE3), purified (Ni-NTA, size-exclusion chromatography)
T4 sequence (looked up): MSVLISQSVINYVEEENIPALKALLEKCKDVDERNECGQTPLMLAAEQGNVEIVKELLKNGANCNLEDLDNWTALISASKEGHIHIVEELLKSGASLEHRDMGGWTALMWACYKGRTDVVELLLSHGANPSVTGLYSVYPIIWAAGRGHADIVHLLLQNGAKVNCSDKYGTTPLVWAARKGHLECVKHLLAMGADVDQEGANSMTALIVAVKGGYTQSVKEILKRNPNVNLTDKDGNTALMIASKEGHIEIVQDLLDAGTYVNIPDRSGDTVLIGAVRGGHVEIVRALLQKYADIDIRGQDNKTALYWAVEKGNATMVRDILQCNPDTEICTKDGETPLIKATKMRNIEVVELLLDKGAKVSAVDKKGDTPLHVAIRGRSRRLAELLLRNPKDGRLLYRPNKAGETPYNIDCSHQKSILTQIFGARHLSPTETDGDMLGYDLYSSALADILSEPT
Nature of the assay: ITC; ARMS proteins (200 μM) in the syringe, Syt4 proteins (20 μM) in the cell; 25 °C; 50 mM Tris, 100 mM NaCl, 1 mM EDTA, 1 mM DTT, pH 7.8; one-site binding model. As to conditions: both partners purified.

B1: Syt4 132–425 (domain or fragment, human, UniProt Q9H2B2-1 132-425, looked up)
chain: ESVSPESLKSSTSLTSEEKQEKLGTLFFSLEYNFERKAFVVNIKEARGLPAMDEQSMTSDPYIKMTILPEKKHKVKTRVLRKTLDPAFDETFTFYGIPYTQIQELALHFTILSFDRFSRDDIIGEVLIPLSGIELSEGKMLMNREIIKRNVRKSSGRGELLISLCYQSTTNTLTVVVLKARHLPKSDVSGLSDPYVKVNLYHAKKRISKKKTHVKKCTPNAVFNELFVFDIPCEGLEDISVEFLVLDSERGSRNEVIGQLVLGAAAEGTGGEHWKEICDYPRRQIAKWHVLCDG
notes: source: E. coli BL21 (DE3), purified (Ni-NTA, size-exclusion chromatography)
One may read the Kd as the equilibrium constant for the complex coming apart. Read a high Kd as weaker binding. As to B1, the binding result (in assay [1]; in the assay with ARMS R1-11 K180A [2]) was “binds” each time. Also, the affinity with ARMS R1-11 K180A [3], expressed as Kd, was 11 µM.

B2: Syt4 132–425 Q186A (domain or fragment, human, UniProt Q9H2B2-1 132-425, looked up)
chain: ESVSPESLKSSTSLTSEEKQEKLGTLFFSLEYNFERKAFVVNIKEARGLPAMDEASMTSDPYIKMTILPEKKHKVKTRVLRKTLDPAFDETFTFYGIPYTQIQELALHFTILSFDRFSRDDIIGEVLIPLSGIELSEGKMLMNREIIKRNVRKSSGRGELLISLCYQSTTNTLTVVVLKARHLPKSDVSGLSDPYVKVNLYHAKKRISKKKTHVKKCTPNAVFNELFVFDIPCEGLEDISVEFLVLDSERGSRNEVIGQLVLGAAAEGTGGEHWKEICDYPRRQIAKWHVLCDG
notes: also called Syt4 Q186A; source: E. coli BL21 (DE3), purified (Ni-NTA, size-exclusion chromatography)
Consider B2, for which the binding result in assay [1] is given as “binds”.

B3: Syt4 132–425 K284A (domain or fragment, human, UniProt Q9H2B2-1 132-425, looked up)
chain: ESVSPESLKSSTSLTSEEKQEKLGTLFFSLEYNFERKAFVVNIKEARGLPAMDEQSMTSDPYIKMTILPEKKHKVKTRVLRKTLDPAFDETFTFYGIPYTQIQELALHFTILSFDRFSRDDIIGEVLIPLSGIELSEGKMLMNREIIKRNVRASSGRGELLISLCYQSTTNTLTVVVLKARHLPKSDVSGLSDPYVKVNLYHAKKRISKKKTHVKKCTPNAVFNELFVFDIPCEGLEDISVEFLVLDSERGSRNEVIGQLVLGAAAEGTGGEHWKEICDYPRRQIAKWHVLCDG
notes: also called Syt4 K284A variant; source: E. coli BL21 (DE3), purified (Ni-NTA, size-exclusion chromatography)
On to B3, for which the binding result in assay [1] is listed as “binds”.

B4: Syt4 C2AB (residues 151–425) (domain or fragment, human, UniProt Q9H2B2-1 151-425, looked up)
chain: QEKLGTLFFSLEYNFERKAFVVNIKEARGLPAMDEQSMTSDPYIKMTILPEKKHKVKTRVLRKTLDPAFDETFTFYGIPYTQIQELALHFTILSFDRFSRDDIIGEVLIPLSGIELSEGKMLMNREIIKRNVRKSSGRGELLISLCYQSTTNTLTVVVLKARHLPKSDVSGLSDPYVKVNLYHAKKRISKKKTHVKKCTPNAVFNELFVFDIPCEGLEDISVEFLVLDSERGSRNEVIGQLVLGAAAEGTGGEHWKEICDYPRRQIAKWHVLCDG
notes: also called Syt4 CAB; source: E. coli BL21 (DE3), purified (Ni-NTA, size-exclusion chromatography)
Take B4: in assay [1], the Kd was ~7 µM.

B5: full length of the cytoplasmic region of Syt4 (CD, residues 41–425) (domain or fragment, human, UniProt Q9H2B2-1 41-425, looked up)
chain: KSSKSNKTPPYKFVHVLKGVDIYPENLNSKKKFGADDKNEVKNKPAVPKNSLHLDLEKRDLNGNFPKTNLKPGSPSDLENATPKLFLEGEKESVSPESLKSSTSLTSEEKQEKLGTLFFSLEYNFERKAFVVNIKEARGLPAMDEQSMTSDPYIKMTILPEKKHKVKTRVLRKTLDPAFDETFTFYGIPYTQIQELALHFTILSFDRFSRDDIIGEVLIPLSGIELSEGKMLMNREIIKRNVRKSSGRGELLISLCYQSTTNTLTVVVLKARHLPKSDVSGLSDPYVKVNLYHAKKRISKKKTHVKKCTPNAVFNELFVFDIPCEGLEDISVEFLVLDSERGSRNEVIGQLVLGAAAEGTGGEHWKEICDYPRRQIAKWHVLCDG
notes: also called Synaptotagmin-4 CD; source: E. coli BL21 (DE3), purified (Ni-NTA, size-exclusion chromatography)
Consider B5, for which, in assay [4], the Kd was ~17 µM.

The values above are taken from paper PMC10707181, “Neuronal Scaffold Protein ARMS Interacts with Synaptotagmin-4 C2AB through the Ankyrin Repeat Domain with an Unexpected Mode” (International Journal of Molecular Sciences, 2023).
